# Experimental data from paper PMC3711439, “Mechanisms of in vivo binding site selection of the hematopoietic master transcription factor PU.1”.
# B1: PU.1 motif oligo 69 (dsDNA)
# DNA 1: ACGTCAGTTCTGCTTTACGT
# DNA 2: ACGTAAAGCAGAACTGACGT
# B2: PU.1 motif oligo 62 (dsDNA)
# DNA 1: ACGTCTCTTCCTCCCTACGT
# DNA 2: ACGTAGGGAGGAAGAGACGT
# B3: PU.1 motif oligo 67 (dsDNA)
# DNA 1: ACGTGACTTCCTTCACACGT
# DNA 2: ACGTGTGAAGGAAGTCACGT
# B4: PU.1 motif oligo 8 (dsDNA)
# DNA 1: ACGTCACTTCCCCTTAACGT
# DNA 2: ACGTTAAGGGGAAGTGACGT
# B5: PU.1 motif oligo 66 (dsDNA)
# DNA 1: ACGTCAGTTCTCTTTTACGT
# DNA 2: ACGTAAAAGAGAACTGACGT
# B6: PU.1 motif oligo 9 (dsDNA)
# DNA 1: ACGTCACTTCCTCTCAACGT
# DNA 2: ACGTTGAGAGGAAGTGACGT
# B7: PU.1 motif oligo 7 (dsDNA)
# DNA 1: ACGTCAGTTCCTCTTTACGT
# DNA 2: ACGTAAAGAGGAACTGACGT
# B8: PU.1 motif oligo 51 (dsDNA)
# DNA 1: ACGTCACTTCCTTGTCACGT
# DNA 2: ACGTGACAAGGAAGTGACGT
# B9: PU.1 motif oligo 6 (dsDNA)
# DNA 1: ACGTGACTTCCTCTTTACGT
# DNA 2: ACGTAAAGAGGAAGTCACGT
# B10: PU.1 motif oligo 68 (dsDNA)
# DNA 1: ACGTGACTTCTGCTTTACGT
# DNA 2: ACGTAAAGCAGAAGTCACGT
# B11: PU.1 motif oligo 56 (dsDNA)
# DNA 1: ACGTCGTTTCCTCTTTACGT
# DNA 2: ACGTAAAGAGGAAACGACGT
# B12: PU.1 motif oligo 53 (dsDNA)
# DNA 1: ACGTCACTTCCATTCTACGT
# DNA 2: ACGTAGAATGGAAGTGACGT
# B13: PU.1 motif oligo 73 (dsDNA)
# DNA 1: ACGTAACTTCTTCAAAACGT
# DNA 2: ACGTTTTGAAGAAGTTACGT
# B14: PU.1 motif oligo 57 (dsDNA)
# DNA 1: ACGTGAGTTCCTTTAAACGT
# DNA 2: ACGTTTAAAGGAACTCACGT
# B15: PU.1 motif oligo 52 (dsDNA)
# DNA 1: ACGTGCCTTCCTCTTTACGT
# DNA 2: ACGTAAAGAGGAAGGCACGT
# B16: PU.1 motif oligo 61 (dsDNA)
# DNA 1: ACGTATCTTCCTCATAACGT
# DNA 2: ACGTTATGAGGAAGATACGT
# B17: PU.1 motif oligo 63 (dsDNA)
# DNA 1: ACGTCACTTCCACAGTACGT
# DNA 2: ACGTACTGTGGAAGTGACGT
# B18: PU.1 motif oligo 74 (dsDNA)
# DNA 1: ACGTCTCTTCCTTAAAACGT
# DNA 2: ACGTTTTAAGGAAGAGACGT
# B19: PU.1 motif oligo 70 (dsDNA)
# DNA 1: ACGTATCTTCCTCACTACGT
# DNA 2: ACGTAGTGAGGAAGATACGT
# B20: PU.1 motif oligo 75 (dsDNA)
# DNA 1: ACGTCAGTTCTGCATTACGT
# DNA 2: ACGTAATGCAGAACTGACGT
# B21: PU.1 motif oligo 65 (dsDNA)
# DNA 1: ACGTTTCTTCCTCTTCACGT
# DNA 2: ACGTGAAGAGGAAGAAACGT
# B22: PU.1 motif oligo 50 (dsDNA)
# DNA 1: ACGTCTCTTCCCCTCTACGT
# DNA 2: ACGTAGAGGGGAAGAGACGT
# B23: PU.1 motif oligo 48 (dsDNA)
# DNA 1: ACGTCACTTCTGCTTTACGT
# DNA 2: ACGTAAAGCAGAAGTGACGT
# B24: PU.1 motif oligo 71 (dsDNA)
# DNA 1: ACGTTGCTTCCTCCCTACGT
# DNA 2: ACGTAGGGAGGAAGCAACGT
# B25: PU.1 motif oligo 49 (dsDNA)
# DNA 1: ACGTCAGTTCCTCCTGACGT
# DNA 2: ACGTCAGGAGGAACTGACGT
# B26: PU.1 motif oligo 58 (dsDNA)
# DNA 1: ACGTCACTTCCCCAGGACGT
# DNA 2: ACGTCCTGGGGAAGTGACGT
# B27: PU.1 motif oligo 60 (dsDNA)
# DNA 1: ACGTCGCTTCCTTCCTACGT
# DNA 2: ACGTAGGAAGGAAGCGACGT
# B28: PU.1 motif oligo 54 (dsDNA)
# DNA 1: ACGTCTCTTCCTTTCTACGT
# DNA 2: ACGTAGAAAGGAAGAGACGT
# B29: PU.1 motif oligo 72 (dsDNA)
# DNA 1: ACGTAATTTCCTCATCACGT
# DNA 2: ACGTGATGAGGAAATTACGT
# B30: PU.1 motif oligo 64 (dsDNA)
# DNA 1: ACGTGACTTCCACAATACGT
# DNA 2: ACGTATTGTGGAAGTCACGT
# B31: PU.1 motif oligo 59 (dsDNA)
# DNA 1: ACGTAACTTCTTCCTTACGT
# DNA 2: ACGTAAGGAAGAAGTTACGT
# B32: PU.1 motif oligo 55 (dsDNA)
# DNA 1: ACGTCACTTCCCTCCCACGT
# DNA 2: ACGTGGGAGGGAAGTGACGT
# B33: PU.1 motif oligo 10 (dsDNA)
# DNA 1: ACGTCACTTCCTGTTTACGT
# DNA 2: ACGTAAACAGGAAGTGACGT
# Target: PU.1 (human, UniProt P17947 1-270)
# Test: MST; MST: 20 mM Tris-HCl pH 7.6, 1.5 mM MgCl2, 0.5 mM EGTA, 10% glycerol, 300 mM KCl, 10 mM DTT, 25 C; 50 nM Cy3-dsDNA, PU.1 1:1 dilutions from 23 uM
# Conditions: protein: recombinant; tags: N-terminal His-tag; label: Cy3 on upper strand
row,Binder,Kd
1,B1,0.909 ± 0.028 µM
2,B2,1.94 ± 1.26 µM
3,B3,1.25 ± 0.37 µM
4,B4,0.441 ± 0.018 µM
5,B5,2 ± 0.04 µM
6,B6,0.676 ± 0.067 µM
7,B7,0.223 ± 0.045 µM
8,B8,0.785 ± 0.041 µM
9,B9,0.191 ± 0.031 µM
10,B10,0.828 ± 0.051 µM
11,B11,0.669 ± 0.145 µM
12,B12,4.59 ± 2.57 µM
13,B13,1.52 ± 0.58 µM
14,B14,1.67 ± 0.17 µM
15,B15,0.887 ± 0.104 µM
16,B16,0.79 ± 0.077 µM
17,B17,1.93 ± 0.22 µM

row,Binder,Kd
1,B18,1.15 µM
2,B19,2.02 ± 0.1 µM
3,B20,1.19 ± 0.14 µM
4,B21,0.872 ± 0.057 µM
5,B22,2.12 ± 0.89 µM
6,B23,0.601 ± 0.007 µM
7,B24,2.2 ± 1.64 µM
8,B25,0.929 ± 0.222 µM
9,B26,1.07 ± 0.229 µM
10,B27,1.895 ± 0.01 µM
11,B28,1.7 ± 0.44 µM
12,B29,1.08 ± 0.251 µM
13,B30,1.23 ± 0.35 µM
14,B31,1.62 ± 0.02 µM
15,B32,1.01 ± 0.192 µM
16,B33,0.175 ± 0.016 µM
